Test results: patent publication US20250228895A1, “COMPOUNDS TO INHIBIT YTHDF2, T HELPER CELLS LACKING EXPRESSION OF YTHDF2, AND METHODS TO TREAT CANCER” (City of Hope, priority 2024, published 2025)

T1: CX3CR1 (Mus musculus, UniProt Q9Z0D9)
T1 construct: BMDMs in the insert were pretreated overnight with 10 μM AZD8797; endogenous in cells; host or cells: primary bone-marrow-derived macrophages (BMDMs) from C57BL/6 mice
T1 sequence (Q9Z0D9 1-354): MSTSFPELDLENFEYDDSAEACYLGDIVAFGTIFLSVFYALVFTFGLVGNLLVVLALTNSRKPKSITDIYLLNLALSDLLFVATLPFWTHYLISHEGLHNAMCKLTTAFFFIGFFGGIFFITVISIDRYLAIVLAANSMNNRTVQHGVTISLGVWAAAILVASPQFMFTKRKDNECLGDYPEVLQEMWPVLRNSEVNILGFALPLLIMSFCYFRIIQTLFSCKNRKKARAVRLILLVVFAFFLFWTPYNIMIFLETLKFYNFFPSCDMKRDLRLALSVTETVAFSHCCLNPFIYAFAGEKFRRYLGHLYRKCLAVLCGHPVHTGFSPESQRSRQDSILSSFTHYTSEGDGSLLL

B1: CpG-Ythdf2 siRNA: Ythdf2 siRNA conjugated to TLR9 agonist CpG1668 ODN by carbon linker; SS SEQ ID NO:1-linker-SEQ ID NO:3, AS SEQ ID NO:2 (nucleic acid)
sense: TCCATGACGTTCCTGATGCT
chain: GCAAACUUGCAGUUUAUGUAU
antisense: AUACAUAAACUGCAAGUUUGCUU
modifications: carbon linker joining SEQ 1 and SEQ 3; modified_base 1..20 OTHER; phosphorothioate bond; modified_base 7 OTHER; Uracil; modified_base 8 OTHER; modified_base 13 OTHER; modified_base 14 OTHER; modified_base 15 OTHER; modified_base 17 OTHER; modified_base 19 OTHER; modified_base 21 OTHER; modified_base 1..3 OTHER; modified_base 2 OTHER; modified_base 6 OTHER; modified_base 11 OTHER; modified_base 18 OTHER; modified_base 22 OTHER; modified_base 23 OTHE

How the values were obtained:
B16-OVA cells = test: WT vs Ythdf2-KO B16-OVA tumor growth in C57BL/6 mice with AZD8797 or liposomal clodronate; assay type: in vivo, mouse; details: 1 mg/kg i.p. once per day
From the text: FIGS. 24A-24L show loss of YTHDF2 in tumor cells promotes the recruitment of CX3CR1^+ macrophage via CX3CL1. (A) Volcano plot showing the differentially expressed genes (DEGs) between WT and Ythdf2-KO MC38 tumor. DEGs with an absolute log-transformed fold change of >0.25 and adjusted P value of <0.05 (determined by two-sided Wilcoxon rank-sum test and adjusted using the Bonferroni correction) were defined as significant. […] (C) Heatmap of differential expression genes in leukocyte migration pathway between WT and Ythdf2-KO MC38 tumor cells. […] (E) The absolute number of CX3CR1^+F4/80^+CD11b^+ TAMs from WT and Ythdf2-KO B16-OVA tumors after tumor inoculation (n=3 tumors per group). (F) Schematic representation of a transwell coculture assay involving BMDMs treated with WT or Ythdf2-KO tumor supernatant. (G) Migration cell number of BMDMs induced by WT or Ythdf2-KO B16-OVA tumor cells cultured supernatants, measured with a transwell assay (n=3 samples per group). (H) Migration cell number of BMDMs induced by WT or Ythdf2-KO B16-OVA tumor cell culture supernatant with or without AZD8797, measured with a transwell assay (n=3 samples per group). […] C57BL/6 mice received either an intraperitoneal injection of AZD8797 (1 mg/kg) or an equal amount of PBS once per day for 13 days. Tumor size was measured (n=5 tumors per group). […] Tumor size was measured (n=5 tumors per group). […]

CX3CR1 = molecular target: T1, CX3CR1; test: Transwell BMDM migration assay with tumor supernatant and CX3CR1 blocking; assay type: cell-based; details: BMDMs pretreated overnight with 10 μM
B16F10 = B16F10 lung metastasis model, intravenous CpG-Ythdf2 siRNA; assay type: in vivo, mouse
Procedure: FIGS. 15A-15P: TLR9 expression and CpG-Ythdf2 siRNA design as well as its uptake by macrophages associated with anti-tumor effect in vivo. FIG. 15A: Violin plot showing the Tlr9 expression across 15 cell clusters from scRNA-seq data in this study. FIG. 15B: Sequence of the CpG-linked mouse Ythdf2 siRNA conjugate (CpG-Ythdf2 siRNA). FIGS. 15C-15D: BMDMs were incubated with different doses of Cy3-labeled CpG-Ythdf2 siRNA (FIG. 15C) or with 100 nM Cy3-labeled CpG-Ythdf2 siRNA for the indicated times (FIG. 15D). CpG-Ythdf2 siRNA uptake was examined by flow cytometry. Data shown are representative histograms. FIG. 15E: Cy3-labeled CpG-Ythdf2 siRNA or CpG only was injected into B16-OVA tumors of C57BL/6 mice. […] Data shown are representative histograms. FIG. 15F: mRNA levels of Ythdf2 in macrophages sorted from tumor tissues of B16-OVA-bearing mice treated with CpG-Ythdf2 siRNA or CpG-scrambled siRNA (n=3 per group). […] Median fluorescence intensity (MFI) is shown. Data are shown as mean±SD and were analyzed with an unpaired two-tailed t-test (FIGS. 15F-15I) or one-way ANOVA with the Holm-Šídík post-test (FIGS. 15J-15K) or two-way ANOVA with the mixed-effects model and adjusted by Holm-Šídík post-test (FIG. 15L). […]
(§1) Tumor models and treatments. […] Metastatic nodules in the lung were analyzed macroscopically and counted. […]

B16-OVA = B16-OVA tumor model, intra-tumoral CpG-Ythdf2 siRNA; assay type: in vivo, mouse
From the text: FIGS. 7A-7G: TLR9-targeted YTHDF2 silencing in TAMs suppresses tumor growth and synergizes with anti-PD-L1 blockade. FIG. 7A: Scheme of therapeutic strategies that use CpG-Ythdf2 siRNA alone or in combination with anti-PD-L1. FIG. 7B: B16-OVA or MC38 tumor growth in mice treated with CpG-Ythdf2 siRNA, CpG-scrambled siRNA, CpG only, or PBS (n=5 per group). FIG. 7C: Percentages of tumor-infiltrating IFN-γ-producing CD8^+ T cells in B16-OVA (n=5 per group) or MC38 tumor models (n=5 for PBS group; n=3 for CpG only, CpG-Scrambled siRNA, and CpG-Ythdf2 groups) as described in FIG. 7B. For the MC38 model, tumors in the CpG only, CpG-Scrambled siRNA, and CpG-Ythdf2 groups were pooled for flow cytometry due to small tumor size (sample size after pooling n=3). FIG. 7D: B16-OVA tumor growth in mice treated with CpG-Ythdf2 siRNA, CpG-scrambled siRNA, or in combination with anti-PD-L1 (left, n=5-6 per group) and percentages of tumor-infiltrating IFN-γ-producing CD8^+ T cells (right, n=5 for CpG-scrambled siRNA plus IgG and CpG-scrambled siRNA plus anti-PD-L1 groups, n=3 for CpG-Ythdf2 siRNA plus IgG and CpG-Ythdf2 siRNA plus anti-PD-L1 groups). Tumors from the CpG-Ythdf2 siRNA plus IgG and CpG-Ythdf2 siRNA plus anti-PD-L1 groups were pooled for flow cytometry due to small tumor size (sample size after pooling n=3). FIG. 7E: IFN-γ and granzyme B production by Ly95 T cells when co-cultured with WT or YTHDF2 knock-down macrophages preloaded with NY-ESO157-c165 peptide (n=5). FIGS. 7F-7G: Colon cancer sections were immunohistochemically stained with YTHDF2 plus CD68 or CD8 alone. Dash lines outline the edge of tumor zones. Asterisk marks the stroma tissues. Representative YTHDF2^+CD68^+ high (Patient #11) and YTHDF2^+CD68^+ low (Patient #2) specimens are shown (FIG. 7F). Scale bars=100 μm. Black rows mark YTHDF2^+CD68^+ cells. Correlations between YTHDF2^+CD68^+ cells and CD8^+ T cells in the stroma area are shown (FIG. 7G: n=18 patients). Data are shown as mean SD and were analyzed with one-way ANOVA with the Holm-Šídík post-test (FIGS. 7C-7E) or two-way ANOVA with mixed-effects model (FIGS. 7B, 7D) and adjusted by the Holm-Šídík post-test or Spearman correlation (FIG. 7G). Data in FIGS. 7B-7E are representative of at least two independent experiments (*P<0.05, **P<0.01, ***P<0.001, ****P<0.0001).
Tumor models and treatments. B16-OVA (2×10^5) or MC38 cells (2×10^5) were implanted subcutaneously (s.c.) into the flank of mice. […] For the lung metastatic melanoma model, B16F10 cells (1×10^5) were injected intravenously (i.v.) into the mice. Fourteen days after injection, mice were euthanized for post-mortem analysis. Metastatic nodules in the lung were analyzed macroscopically and counted. […] To co-transfer with macrophages, B16-OVA (2×10^5) or MC38 cells (2×10^5) were mixed with an equal number of bone marrow-derived macrophages (BMDMs) from WT or Ythdf2-cKO mice and implanted s.c. into the flank of WT mice, or Rag1^−/− mice injected i.v. without or with CD3^+ T cells (5×10^6). To knock down Stat1 using siRNA, BMDMs were transfected with siGENOME mouse Stat1 siRNA (Catalog: M-058881-02-0005, Horizon) at 100 nM using lipofectamine 3000 (Invitrogen). 48 h later, cells were collected and mixed with an equal number of B16-OVA cells (2×10^5) and implanted s.c. into the flank of WT mice.
For the uptake studies, CpG-Ythdf2 siRNA (SS) was labeled using […] Cy3. In vivo delivery of CpG-Ythdf2 siRNA for treatment began when the largest diameter of the tumors reached 5-8 mm-typically 5-7 days after inoculation. Mice were injected intratumorally every other day with 5 mg/kg of CpG-Ythdf2 siRNA, CpG-scrambled siRNAs, CpG alone or PBS in a volume of 20 μL. Tumor growth was monitored every other day.

Ythdf2 mRNA = test: qPCR of Ythdf2 mRNA in sorted TAMs of treated B16-OVA-bearing mice; assay type: in vivo, mouse; details: vs CpG-scrambled siRNA group
Procedure: FIGS. 15A-15P: TLR9 expression and CpG-Ythdf2 siRNA design as well as its uptake by macrophages associated with anti-tumor effect in vivo. FIG. 15A: Violin plot showing the Tlr9 expression across 15 cell clusters from scRNA-seq data in this study. FIG. 15B: Sequence of the CpG-linked mouse Ythdf2 siRNA conjugate (CpG-Ythdf2 siRNA). FIGS. 15C-15D: BMDMs were incubated with different doses of Cy3-labeled CpG-Ythdf2 siRNA (FIG. 15C) or with 100 nM Cy3-labeled CpG-Ythdf2 siRNA for the indicated times (FIG. 15D). CpG-Ythdf2 siRNA uptake was examined by flow cytometry. Data shown are representative histograms. FIG. 15E: Cy3-labeled CpG-Ythdf2 siRNA or CpG only was injected into B16-OVA tumors of C57BL/6 mice. […] Median fluorescence intensity (MFI) is shown. Data are shown as mean±SD and were analyzed with an unpaired two-tailed t-test (FIGS. 15F-15I) or one-way ANOVA with the Holm-Šídík post-test (FIGS. 15J-15K) or two-way ANOVA with the mixed-effects model and adjusted by Holm-Šídík post-test (FIG. 15L). […]
Quantitative real-time RT-PCR (qPCR). RNA was isolated using an RNeasy Mini Kit (QIAGEN) and then reverse transcribed to cDNA with PrimeScript RT Reagent Kit with gDNA Eraser (Takara Bio) following the manufacturer's instructions. mRNA expression levels were analyzed using SYBR Green PCR Master Mix and a QuantStudio 12K Flex Real-Time PCR System (both from Thermo Fisher Scientific).

MC38 = MC38 tumor model, intra-tumoral CpG-Ythdf2 siRNA; assay type: in vivo, mouse
From the text: FIGS. 7A-7G: TLR9-targeted YTHDF2 silencing in TAMs suppresses tumor growth and synergizes with anti-PD-L1 blockade. FIG. 7A: Scheme of therapeutic strategies that use CpG-Ythdf2 siRNA alone or in combination with anti-PD-L1. FIG. 7B: B16-OVA or MC38 tumor growth in mice treated with CpG-Ythdf2 siRNA, CpG-scrambled siRNA, CpG only, or PBS (n=5 per group). FIG. 7C: Percentages of tumor-infiltrating IFN-γ-producing CD8^+ T cells in B16-OVA (n=5 per group) or MC38 tumor models (n=5 for PBS group; n=3 for CpG only, CpG-Scrambled siRNA, and CpG-Ythdf2 groups) as described in FIG. 7B. For the MC38 model, tumors in the CpG only, CpG-Scrambled siRNA, and CpG-Ythdf2 groups were pooled for flow cytometry due to small tumor size (sample size after pooling n=3). […] Data are shown as mean SD and were analyzed with one-way ANOVA with the Holm-Šídík post-test (FIGS. 7C-7E) or two-way ANOVA with mixed-effects model (FIGS. 7B, 7D) and adjusted by the Holm-Šídík post-test or Spearman correlation (FIG. 7G). […]
as §1
For the uptake studies, CpG-Ythdf2 siRNA (SS) was labeled using fluorescein Cy3. […] Tumor growth was monitored every other day.

[1] = 5 mg/kg intratumorally every other day, vs CpG-scrambled siRNA
[2] = intra-tumoral, vs CpG-scrambled siRNA
[3] = vs CpG-Ythdf2 siRNA alone or anti-PD-L1 mAb alone

Molecule	difference of tumor growth between WT and Ythdf2-KO tumor (B16-OVA cells)	macrophage migration induced by WT vs Ythdf2-KO tumor supernatant (CX3CR1)	tumor metastasis (lung metastatic nodules) (B16F10; intravenous injection, vs CpG-scrambled siRNA)	percentage of IFN-γ-producing CD8+ T cells (B16F10; lung, vs CpG-scrambled siRNA group)	tumor growth (B16-OVA; [1])	tumor growth in Batf3 KO mice (B16-OVA; Batf3 KO mice lacking cDC1 cells, vs CpG-scrambled siRNA)	proportion of M1 TAMs (B16-OVA; [2])	proportion of M2 TAMs (B16-OVA; [2])	CD8+ cytotoxic T cell responses, combination with anti-PD-L1 antibody (B16-OVA; [3])	tumor growth, combination with anti-PD-L1 antibody (B16-OVA; [3])	percentage of IFN-γ-producing CD8+ T cells (B16-OVA; vs CpG-scrambled siRNA group)	mRNA levels of Ythdf2 in sorted TAMs (Ythdf2 mRNA)	tumor growth (MC38; [1])	percentage of IFN-γ-producing CD8+ T cells (MC38; vs CpG-scrambled siRNA group)
CC(C)C[C@H](CO)Nc1nc(S[C@@H](C)c2ccccc2)nc2nc(N)sc12 [AZD8797]	abolished the difference of tumor growth	differences in macrophage migration between WT and Ythdf2 KO groups disappeared												
B1			inhibited tumor metastasis	significantly higher	significantly inhibited tumor growth	still inhibited tumor growth	significantly up-regulated	down-regulated	increased	reduced tumor growth	significantly higher	significantly lower	significantly inhibited tumor growth	significantly higher
